# Reference: patent US20110014287A1 (ALLERGAN, published 2011)
# Columns and labels:
# [1] = biological target: T1, silk fibroin, substantially sericin-depleted, from Bombyx mori silk (Bombyx mori, UniProt P05790 22-5263; P21828 17-262, limits assumed); experiment: HPLC of 23RGD extracted from lyophilized silk precipitate, against standard curve; formulation labelled RMED in this sentence
# T1 construct: also called silk fibroin hydrogel; silk gel
# Method: (§1) The amount of 23RGD bound to silk precipitates was quantified by analyzing lyophilized samples. The 23RGD was removed by incubating the samples for 4 hours in a dissolving buffer, then centrifuging on an Eppendorf 5415C (Eppendorf North America Inc., Westbury, N.Y.) at 16,000 g (RCF) for 30 minutes and the supernatant collected. This supernatant was then centrifuged in identical fashion and the final supernatant collected for HPLC analysis using a PerkinElmer Series 200 (PerkinElmer, Waltham, Mass.). The 23RGD peak areas from each curve were compared against a standard curve. 1-Way ANOVA was used to test for significant differences caused by changing silk concentration, 23RGD concentration, and accelerant volume. A Student's t-test was used to test the significance of differences resulting from altered ethanol concentrations.
# [2] = biological target: T1, silk fibroin, substantially …; experiment: HPLC of 23RGD extracted from lyophilized silk precipitate, against standard curve; formulation labelled RLO in this sentence
# Method: as §1
# [3] = biological target: T1, silk fibroin, substantially …; experiment: HPLC of 23RGD extracted from lyophilized silk precipitate, against standard curve; BASE formulation
# Method: as §1
# [4] = biological target: T1, silk fibroin, substantially …; experiment: HPLC of 23RGD extracted from rinsed silk hydrogel, peak area against a 23RGD standard curve
# Description: 23RGD-infused gels were studied to quantify the amount of 23RGD bound to the silk-hydrogel device as well as the quantity of free 23RGD which might be rinsed free of the device under relevant conditions. Briefly, samples of 23RGD-infused gel were cast and rinsed according to the methods above, with samples of rinse buffer being collected from each rinse for subsequent analysis by HPLC. Additionally, subsequent to the last rinse, the gel samples were mechanically pulverized by means of a stainless steel stirring rod and the adsorbed 23RGD removed by incubation for 4 hours in a dissolving buffer. This mixture of gel and solvent was then centrifuged on an Eppendorf 5415C at 16,000 g RCF for 30 minutes. The supernatant was collected and centrifuged another 30 minutes at 16,000 g RCF after which time the supernatant was collected in a sample vial for HPLC analysis. Samples of rinse buffer from the first and last rinse were centrifuged in the same fashion after being diluted with the same solvent the gel was extracted with in a volumetric ratio of 1 part rinse buffer to 4 parts solvent. To ensure 23RGD-hydrogel device rinse-exposed surface area was not a limiting factor, the same rinse and extraction process was performed upon devices pulverized after gelation and before rinsing.
# [5] = biological target: T1, silk fibroin, substantially …; experiment: HPLC of 23RGD extracted from lyophilized silk precipitate, against standard curve; AVHI formulation
# Method: as §1
# [6] = biological target: T1, silk fibroin, substantially …; experiment: HPLC of 23RGD extracted from lyophilized silk precipitate, against standard curve; SCVLO formulation
# Method: as §1
# [7] = biological target: T1, silk fibroin, substantially …; experiment: HPLC of 23RGD extracted from lyophilized silk precipitate, against standard curve; AVLO formulation
# Method: as §1
# [8] = biological target: T1, silk fibroin, substantially …; experiment: HPLC of 23RGD extracted from lyophilized silk precipitate, against standard curve; SCLO formulation
# Method: as §1
# [9] = biological target: T1, silk fibroin, substantially …; experiment: HPLC of 23RGD extracted from silk precipitates, across formulations
# Method: as §1
# [10] = biological target: T1, silk fibroin, substantially …; experiment: HPLC of 23RGD extracted from lyophilized silk precipitate, against standard curve; RHI formulation
# Method: as §1
binder,measurement,setting,value
"GRGDIPASSKGGGGSRLLLLLLR (not fully specified; C-terminal -NH2 as printed (HOOC-GRGDIPASSKG4SRL6R-NH2), also called amphiphilic peptide) [23RGD peptide (HOOC-GRGDIPASSKG4SRL6R-NH2)]",23RGD:silk ratio bound to the precipitate,[1],6.95 23RGD:silk ratio
same,23RGD:silk ratio bound to the precipitate,[2],1.1 23RGD:silk ratio
same,23RGD:silk ratio bound to the precipitate,[3],8.7 23RGD:silk ratio
same,23RGD:silk ratio bound to the gel,[4],3.35 23RGD:silk ratio
same,23RGD:silk ratio bound to the precipitate,[5],10.5 23RGD:silk ratio
same,23RGD:silk ratio bound to the precipitate,[6],11 23RGD:silk ratio
same,23RGD:silk ratio bound to the precipitate,[7],5.2 23RGD:silk ratio
same,23RGD:silk ratio bound to the precipitate,[8],9.9 23RGD:silk ratio
same,apparent saturation 23RGD:silk ratio,[9],~10 23RGD:silk ratio
same,23RGD:silk ratio bound to the precipitate,[10],10.7 23RGD:silk ratio
